# According to US7109015B2, “Removal of N-terminal methionine from proteins by engineered methionine aminopeptidase” (Academia Sinica, priority 2004, dated 2006):
# Changes are numbered by the printed parent chain. Names may count otherwise. “And” between values parts separate entries of the source, which are not always exact repeats. Equal values may be shown once. Read-outs that look alike come from different tables or passages of the source.
# T1: synthetic oligopeptides (Escherichia coli, UniProt P0AE18, M206T/Q233G/Y168G)
# T1 construct: […]; made in house; host or cells: E. coli BL21(DE3)
# T1 sequence (P0AE18 2-264 Y168G/M206T/Q233G): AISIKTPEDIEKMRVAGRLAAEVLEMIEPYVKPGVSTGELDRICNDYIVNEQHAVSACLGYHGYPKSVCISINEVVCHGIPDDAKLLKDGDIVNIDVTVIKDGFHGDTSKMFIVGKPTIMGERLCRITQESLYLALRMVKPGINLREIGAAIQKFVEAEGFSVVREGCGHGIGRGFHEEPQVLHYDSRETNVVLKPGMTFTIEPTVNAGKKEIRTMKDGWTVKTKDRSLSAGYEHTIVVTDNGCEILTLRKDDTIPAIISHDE
# B1: MetAP-GTG (protein)
# chain: T1 sequence (P0AE18 2-264 Y168G/M206T/Q233G)
# B2: W221L: E. coli MetAP mutation in the putative substrate-binding pocket (protein, UniProt P0AE18 2-264, looked up, variant W221L)
# Methionine aminopeptidase: T1 sequence (P0AE18 2-264 Y168G/M206T/Q233G) with G167Y, T205M, W220L, G232Q
# B3: F177L: E. coli MetAP mutation in the putative substrate-binding pocket (protein, UniProt P0AE18 2-264, looked up, variant F177L)
# Methionine aminopeptidase: T1 sequence (P0AE18 2-264 Y168G/M206T/Q233G) with G167Y, F176L, T205M, G232Q
# B4: C70S: E. coli MetAP mutation in the putative substrate-binding pocket (protein, UniProt P0AE18 2-264, looked up, variant C70S)
# Methionine aminopeptidase: T1 sequence (P0AE18 2-264 Y168G/M206T/Q233G) with C69S, G167Y, T205M, G232Q
# How the values were obtained:
# [1] = tested on: Met-tagged onconase; assay: In vivo catalytic activity of MetAPs co-expressed with Met-tagged onconase in E. coli BL21(DE3); N-terminus by Edman degradation; type: cell-based; details: in vivo in E. coli
# Text: Residues Tyr168, Met206 and Gln233 in the putative substrate-binding site of E. coli MetAP were mutated by site-directed mutagenesis based on the crystal structure and amino acid sequence alignment of MetAPs (Ben-Bassat et al., 1987; Lowther et al., 1999; Walker et al., 1999). For the expression of secretory ribonucleases, the ribonuclease gene was cloned and expressed as described previously (Huang et al., 1998).
# Most of the co-expressed target protein, e.g., onconase or RC-RNase L1, existed in insoluble cell lysate. They were denatured, renatured and purified as described previously (Liao et al., 2003). The purified ribonucleases were stored in 20 mM sodium phosphate, pH 7.0, for pyroglutamate formation at the N-terminus. Alternatively, the ribonuclease secreted into culture medium through pe1B system was concentrated and purified to electrophoretical homogeneity at a yield of 1˜5 mg per 1 liter of culture (Huang et al., 1998).
# [2] = biological target: T1, synthetic oligopeptides; type: biochemical; details: dodecapeptides, in vitro
# Method: (§1) The oligopeptide substrates used in this experiment were synthesized on the 432A Synergy peptide synthesizer (Applied Biosystems, Foster, Calif., USA). The enzymatic activity of purified MetAP was assayed as described by Ben-Bassat et al., 1987. Briefly, the diluted MetAP enzyme in 10 μl was added to 90 μl of the substrate solution containing 4 mM oligopeptide, 0.1 M potassium phosphate buffer, pH 7.5 and 0.2 mM CoCl2, incubated at 37° C. for 10 min and stopped in boiling water for 2 min. After addition of 0.9 ml of color development mixture containing 0.2 mg of L-amino acid oxidase, 0.03 mg of horseradish peroxidase and 0.2 mg of o-dianisidine in 0.1 M Tris-HCl, pH 7.4, the mixtures were incubated for 10 min at 37° C., and the optical density at 440 nm was recorded. One unit of activity is defined as 1 μmol of amino acids produced per min under the assay conditions and the pure Met was used as standard. The N-terminal residues of the MetAP-treated oligopeptide were further verified by Edman degradation.
# [3] = tested on: synthetic oligopeptides; type: biochemical; details: for Specific activity (unit/mg): 4 mM oligopeptide, pH 7.5, 37° C.
# Method: as §1
# [4] = E. coli MetAP mutations; Chiu et al. 1999; cited from earlier work
molecule,measurement,setting,value
B1,Catalytic activity (%): percent of penultimate residue removed,[1]; substrate MAA-Onc,30%
same,Catalytic activity (%): removal of N-terminal Met,[1]; substrate MAA-Onc,100%
same,Catalytic activity (%): percent of penultimate residue removed,[1]; substrate MAG-Onc,16%
same,Catalytic activity (%): removal of N-terminal Met,[1]; substrate MAG-Onc,86%
same,Catalytic activity (%): removal of N-terminal Met,[1]; substrate MAL-Onc,100%
same,Catalytic activity (%): removal of N-terminal Met,[1]; substrate MAM-Onc,96%
same,Catalytic activity (%): removal of N-terminal Met,[1]; substrate MDD-Onc,27%
same,Catalytic activity (%): removal of N-terminal Met,[1]; substrate MED-Onc,35%
same,Catalytic activity (%): percent of penultimate residue removed,[1]; substrate MFA-Onc,100%
same,Catalytic activity (%): removal of N-terminal Met,[1]; substrate MFA-Onc,36%
same,Catalytic activity (%): removal of N-terminal Met,[1]; substrate MFD-Onc,23%
same,Catalytic activity (%): removal of N-terminal Met,[1]; substrate MIA-Onc,96%
same,Catalytic activity (%): removal of N-terminal Met,[1]; substrate MID-Onc,94%
same,Catalytic activity (%): removal of N-terminal Met,[1]; substrate MKA-Onc,9%
same,Catalytic activity (%): removal of N-terminal Met,[1]; substrate MKD-Onc,7%
same,Catalytic activity (%): percent of penultimate residue removed,[1]; substrate MLA-Onc,80%
same,Catalytic activity (%): removal of N-terminal Met,[1]; substrate MLA-Onc,100%
same,Catalytic activity (%): removal of N-terminal Met,[1]; substrate MLD-Onc,90% and 98%
same,Catalytic activity (%): percent of penultimate residue removed,[1]; substrate MLG-Onc,46%
same,Catalytic activity (%): removal of N-terminal Met,[1]; substrate MLG-Onc,87%
same,Catalytic activity (%): percent of penultimate residue removed,[1]; substrate MLH-Onc,51%
same,Catalytic activity (%): removal of N-terminal Met,[1]; substrate MLH-Onc,100%
same,Catalytic activity (%): percent of penultimate residue removed,[1]; substrate MLL-Onc,55%
same,Catalytic activity (%): removal of N-terminal Met,[1]; substrate MLL-Onc,93%
same,Catalytic activity (%): removal of N-terminal Met,[1]; substrate MLM-Onc,100%
same,Catalytic activity (%): percent of penultimate residue removed,[1]; substrate MLN-Onc,68%
same,Catalytic activity (%): removal of N-terminal Met,[1]; substrate MLN-Onc,100%
same,Catalytic activity (%): percent of penultimate residue removed,[1]; substrate MLP-Onc,95%
same,Catalytic activity (%): removal of N-terminal Met,[1]; substrate MLP-Onc,55%
same,Catalytic activity (%): percent of penultimate residue removed,[1]; substrate MLS-Onc,69%
same,Catalytic activity (%): removal of N-terminal Met,[1]; substrate MLS-Onc,87%
same,Catalytic activity (%): percent of penultimate residue removed,[1]; substrate MLT-Onc,54%
same,Catalytic activity (%): removal of N-terminal Met,[1]; substrate MLT-Onc,72%
same,Catalytic activity (%): percent of penultimate residue removed,[1]; substrate MLV-Onc,69%
same,Catalytic activity (%): removal of N-terminal Met,[1]; substrate MLV-Onc,97%
same,Catalytic activity (%): removal of N-terminal Met,[1]; substrate MQD-Onc,97%
same,Catalytic activity (%): percent of penultimate residue removed,[1]; substrate MQM-Onc,100%
same,Catalytic activity (%): removal of N-terminal Met,[1]; substrate MQM-Onc,100%
same,"Catalytic activity (%): value in parenthesis after Met and Gln removal (third cleavage site, second Met)",[1]; substrate MQM-Onc,73%
same,Catalytic activity (%): percent of penultimate residue removed,[1]; substrate MQN-Onc,90%
same,Catalytic activity (%): removal of N-terminal Met,[1]; substrate MQN-Onc,83%
same,Catalytic activity (%): percent of penultimate residue removed,[1]; substrate MQP-Onc,100%
same,Catalytic activity (%): removal of N-terminal Met,[1]; substrate MQP-Onc,54%
same,Catalytic activity (%): percent of penultimate residue removed,[1]; substrate MQT-Onc,79%
same,Catalytic activity (%): removal of N-terminal Met,[1]; substrate MQT-Onc,86%
same,Catalytic activity (%): removal of N-terminal Met,[1]; substrate MRA-Onc,8%
same,Catalytic activity (%): removal of N-terminal Met,[1]; substrate MRD-Onc,4%
same,Catalytic activity (%): percent of penultimate residue removed,[1]; substrate MWA-Onc,89%
same,Catalytic activity (%): removal of N-terminal Met,[1]; substrate MWA-Onc,100%
same,Catalytic activity (%): removal of N-terminal Met,[1]; substrate MWD-Onc,78%
same,Catalytic activity (%): removal of N-terminal Met,"[1]; substrate MWD-Onc, listed as GTG",much higher activities
same,Catalytic activity (%): removal of N-terminal Met,[1]; substrate MYA-Onc,22%
same,Catalytic activity (%): removal of N-terminal Met,[1]; substrate MYD-Onc,20%
same,Catalytic activity (%): removal of N-terminal Met,"[1]; substrate MYD-Onc, listed as GTG",much higher activities
same,Specific activity on […] as % of that for […],[2],43%
same,In vitro catalytic activity,[3]; oligopeptides with Gln at the penultimate residue,the most activity
same,Specific activity (unit/mg),[3]; substrate MADY (SEQ ID NO:7),1.68 ± 0.51 unit/mg
same,Specific activity (unit/mg),[3]; substrate MADYLT (SEQ ID NO:8),2.50 ± 0.42 unit/mg
same,Specific activity (unit/mg),[3]; substrate MQDYLT (SEQ ID NO:9),0.23 ± 0.01 unit/mg
same,Specific activity (unit/mg),[3]; substrate […] (SEQ ID NO:5),9.80 ± 0.26 unit/mg
same,Specific activity (unit/mg),[3]; substrate […] (SEQ ID NO:6),4.24 ± 0.14 unit/mg
B2,"Catalytic activity, % activity of the wild type",[4],27%
B3,"Catalytic activity, % activity of the wild type",[4],do not reduce catalytic activity
B4,"Catalytic activity, % activity of the wild type",[4],54%
